# T1: mouse NPR1 extracellular domain expressed with a C-terminal mouse IgG2a (mNPR1-mFc) (mouse)
# T1 chain: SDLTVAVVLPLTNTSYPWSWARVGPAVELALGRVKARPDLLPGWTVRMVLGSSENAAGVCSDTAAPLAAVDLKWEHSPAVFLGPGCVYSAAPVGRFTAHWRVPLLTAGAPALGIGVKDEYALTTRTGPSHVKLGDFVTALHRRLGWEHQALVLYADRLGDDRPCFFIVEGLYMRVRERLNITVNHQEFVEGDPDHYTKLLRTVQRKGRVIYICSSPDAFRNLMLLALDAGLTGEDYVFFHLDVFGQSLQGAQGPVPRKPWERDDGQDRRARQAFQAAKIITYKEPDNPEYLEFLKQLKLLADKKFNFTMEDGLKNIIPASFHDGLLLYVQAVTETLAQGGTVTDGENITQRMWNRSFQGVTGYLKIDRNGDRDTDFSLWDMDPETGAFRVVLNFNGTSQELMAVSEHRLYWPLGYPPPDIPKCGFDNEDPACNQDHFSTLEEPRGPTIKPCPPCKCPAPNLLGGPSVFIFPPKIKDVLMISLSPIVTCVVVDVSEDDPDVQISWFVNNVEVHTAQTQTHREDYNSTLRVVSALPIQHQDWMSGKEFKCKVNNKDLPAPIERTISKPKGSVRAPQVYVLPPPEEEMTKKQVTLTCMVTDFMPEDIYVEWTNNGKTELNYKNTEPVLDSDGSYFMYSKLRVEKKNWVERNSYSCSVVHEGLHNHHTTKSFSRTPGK
# T2: monkey NPR1 extracellular domain expressed with a C-terminal myc-myc-hexahistidine (mfNPR1-MMH) (monkey, UniProt P16066 33-473 (human entry))
# T2 construct: also called monomeric monkey NPR1
# T2 chain: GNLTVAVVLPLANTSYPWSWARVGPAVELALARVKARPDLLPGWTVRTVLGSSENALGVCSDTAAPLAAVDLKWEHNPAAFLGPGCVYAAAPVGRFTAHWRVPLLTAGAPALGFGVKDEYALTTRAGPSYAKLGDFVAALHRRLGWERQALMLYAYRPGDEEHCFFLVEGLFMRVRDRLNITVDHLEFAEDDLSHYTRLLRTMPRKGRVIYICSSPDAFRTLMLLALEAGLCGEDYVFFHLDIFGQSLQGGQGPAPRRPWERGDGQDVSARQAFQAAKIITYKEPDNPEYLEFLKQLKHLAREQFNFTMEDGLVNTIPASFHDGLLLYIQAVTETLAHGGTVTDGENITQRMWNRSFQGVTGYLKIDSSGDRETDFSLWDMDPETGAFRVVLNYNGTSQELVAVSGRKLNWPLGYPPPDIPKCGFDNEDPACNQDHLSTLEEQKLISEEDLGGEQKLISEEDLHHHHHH
# T3: human NPR1 extracellular domain expressed with a C-terminal mouse IgG2a (hNPR1-mFc) (human)
# T3 construct: also called hNPR1-Fc; human NPR1 dimer
# T3 chain: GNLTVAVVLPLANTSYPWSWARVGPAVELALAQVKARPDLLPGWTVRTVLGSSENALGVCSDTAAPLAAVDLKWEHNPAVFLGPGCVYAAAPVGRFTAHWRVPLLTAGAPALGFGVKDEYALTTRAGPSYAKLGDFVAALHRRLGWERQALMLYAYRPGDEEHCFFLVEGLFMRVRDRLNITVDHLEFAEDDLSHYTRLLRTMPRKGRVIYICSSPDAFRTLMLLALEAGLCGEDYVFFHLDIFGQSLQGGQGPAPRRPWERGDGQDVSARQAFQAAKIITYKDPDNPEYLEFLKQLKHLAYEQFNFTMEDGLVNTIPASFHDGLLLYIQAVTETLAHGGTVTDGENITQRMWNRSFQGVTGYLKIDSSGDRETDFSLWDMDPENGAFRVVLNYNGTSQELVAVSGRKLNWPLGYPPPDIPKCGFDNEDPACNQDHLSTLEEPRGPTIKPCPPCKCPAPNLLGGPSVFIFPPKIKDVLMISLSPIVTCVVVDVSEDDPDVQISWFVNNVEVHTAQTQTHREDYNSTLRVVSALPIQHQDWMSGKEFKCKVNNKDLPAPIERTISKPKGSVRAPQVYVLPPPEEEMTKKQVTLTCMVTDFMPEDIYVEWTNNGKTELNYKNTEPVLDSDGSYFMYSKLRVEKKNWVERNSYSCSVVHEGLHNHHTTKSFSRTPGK
# Assays:
# [1] = target: T1, mouse NPR1 extracellular domain …; assay: SPR, Tables 21 to 26
# Procedure: (§1) Equilibrium dissociation constant (KD) for different NPR1 reagents binding to purified anti-NPR1 monoclonal antibodies (mAbs) were determined using a real-time surface plasmon resonance based Biacore 4000 biosensor. All binding studies were performed in 10 mM HEPES, 150 mM NaCl, 3 mM EDTA, and 0.05% v/v Surfactant Tween-20, pH 7.4 (HBS-ET) running buffer at 25° C. and 37° C. The Biacore CM5 sensor chip surface was first derivatized by amine coupling with either mouse anti-human Fc specific mAb (GE Healthcare, #BR100839) or goat anti-human Fcy specific polyclonal antibody (Jackson ImmunoResearch Laboratories, #BR-1008-39) to capture anti-NPR1 mAbs.
# [2] = target: T2, monkey NPR1 extracellular domain …; assay: SPR, mAb captured, 37 C
# Procedure: as §1
# [3] = target: T4, mouse NPR1 extracellular domain expressed with a C-terminal myc-myc-hexahistidine (mNPR1-MMH) (mouse, UniProt P18293 29-469); assay: SPR, mAb captured, 37 C
# Procedure: as §1
# [4] = target: T3, human NPR1 extracellular domain …; assay: SPR, mAb captured, 37 C
# Procedure: as §1
# [5] = target: T2, monkey NPR1 extracellular domain …; assay: SPR, mAb captured, 25 C
# Procedure: as §1
# [6] = target: T4, mouse NPR1 extracellular domain …; assay: SPR, mAb captured, 25 C
# Procedure: as §1
# [7] = target: T3, human NPR1 extracellular domain …; assay: SPR, mAb captured, 25 C
# Procedure: as §1
binder,measurement,setting,value
"mAb25545 (antibody, V domains shown) VH: QVQLVESGGGLVKPGGSLRLSCAASGFTFSDYHLSWIRQAPGKGLEWVSYIRSSGRTIDYAASVKGRFTISRDNAKNSLYLQMNSLRVEDTAVYYCARENWIVLKVYAGIVGAPLDQWGQGTLVTVSS VL: not shown",binding result,[1],no binding
same,100 nM Ag Bound (RU),[2],10 RU
same,100 nM Ag Bound (RU),[3],1 RU
same,100 nM Ag Bound (RU),[4],15 RU
same,100 nM Ag Bound (RU),[5],4 RU
same,100 nM Ag Bound (RU),[6],0 RU
same,binding result,[6],no binding (tested: 100 nM)
same,100 nM Ag Bound (RU),[7],7 RU

# — US20240309103A1 (Regeneron, published 2024)
